Experimental data: publication PMC6508626

Tests used:
Test in all cases: co-IP
[1] = biological target: HA-tagged NS1 D197A (Dengue virus 2 (strain 16681))
[2] = biological target: HA-tagged NS1 R62A (Dengue virus 2 (strain 16681))
[3] = biological target: HA-tagged NS1 L153A (Dengue virus 2 (strain 16681))
[4] = biological target: HA-tagged NS1 W8A (Dengue virus 2 (strain 16681))
[5] = biological target: HA-tagged NS1 Y32A (Dengue virus 2 (strain 16681))
[6] = biological target: HA-tagged NS1 S252A (Dengue virus 2 (strain 16681))
[7] = biological target: HA-tagged NS1 P319A (Dengue virus 2 (strain 16681))
[8] = biological target: HA-tagged NS1 W168A (Dengue virus 2 (strain 16681))
[9] = biological target: HA-tagged NS1 P320A (Dengue virus 2 (strain 16681))
[10] = biological target: Carboxy-terminally HA-tagged wildtype NS1 from pTM_NS1_HA (Dengue virus 2 (strain 16681)) (UniProt P29990)
[11] = biological target: HA-tagged NS1 E334A (Dengue virus 2 (strain 16681))
[12] = biological target: HA-tagged NS1 K189A (Dengue virus 2 (strain 16681))
[13] = biological target: HA-tagged NS1 W150A (Dengue virus 2 (strain 16681))
[14] = biological target: HA-tagged NS1 Y158A (Dengue virus 2 (strain 16681))
[15] = biological target: HA-tagged NS1 W311A (Dengue virus 2 (strain 16681))
[16] = biological target: HA-tagged NS1 R336A (Dengue virus 2 (strain 16681))
[17] = biological target: HA-tagged NS1 T317A (Dengue virus 2 (strain 16681))
[18] = biological target: HA-tagged NS1 G161A (Dengue virus 2 (strain 16681))
[19] = biological target: HA-tagged NS1 D136A (Dengue virus 2 (strain 16681))

With “NS4A-2K-4B polyprotein from pTM_NS4A-2K-4B (natural protein)” the NS1—NS4A-2K-4B interaction (fold of WT) [1] was 4.09 fold of WT, the NS1—NS4A-2K-4B interaction (fold of WT) [2] was 3.97 fold of WT and the NS1—NS4A-2K-4B interaction (fold of WT) [3] was 1.67 fold of WT. The NS1—NS4A-2K-4B interaction (fold of WT) [4] was 0.99 fold of WT, the NS1—NS4A-2K-4B interaction (fold of WT) [5] was 0.31 fold of WT and the NS1—NS4A-2K-4B interaction (fold of WT) [6] was 3.18 fold of WT. For the same substance, the NS1—NS4A-2K-4B interaction (fold of WT) [7] was 0.37 fold of WT, the NS1—NS4A-2K-4B interaction (fold of WT) [8] was 0.02 fold of WT and the NS1—NS4A-2K-4B interaction (fold of WT) [9] was 0.86 fold of WT. For the same substance, the NS1—NS4A-2K-4B interaction (fold of WT) [10] was 1 fold of WT, the NS1—NS4A-2K-4B interaction (fold of WT) [11] was 0.18 fold of WT and the NS1—NS4A-2K-4B interaction (fold of WT) [12] was 1.33 fold of WT. For the same substance, the NS1—NS4A-2K-4B interaction (fold of WT) [13] was 0.38 fold of WT, the NS1—NS4A-2K-4B interaction (fold of WT) [14] was 3.01 fold of WT and the NS1—NS4A-2K-4B interaction (fold of WT) [15] was 0.31 fold of WT. The NS1—NS4A-2K-4B interaction (fold of WT) [16] was 0.26 fold of WT, the NS1—NS4A-2K-4B interaction (fold of WT) [17] was 2.08 fold of WT and the NS1—NS4A-2K-4B interaction (fold of WT) [18] was 0.07 fold of WT. For the same substance, the NS1—NS4A-2K-4B interaction (fold of WT) [19] was 0.21 fold of WT.
